Test results published in patent US20020037514A1, “Identification of nuclear receptor-dependent coregulator recruitment” (priority 2000, published 2002).

Molecular target: T1, RARα-V5/RXRγ/DR-5 ternary complex (Homo sapiens, UniProt P10276)
T1 construct: the nuclear receptor subunits used in the invention are full length nuclear receptor monomer subunits; expressed in transfected cells; host or cells: CV-1 (green monkey kidney), whole-cell lysate
T1 sequence (P10276 1-462): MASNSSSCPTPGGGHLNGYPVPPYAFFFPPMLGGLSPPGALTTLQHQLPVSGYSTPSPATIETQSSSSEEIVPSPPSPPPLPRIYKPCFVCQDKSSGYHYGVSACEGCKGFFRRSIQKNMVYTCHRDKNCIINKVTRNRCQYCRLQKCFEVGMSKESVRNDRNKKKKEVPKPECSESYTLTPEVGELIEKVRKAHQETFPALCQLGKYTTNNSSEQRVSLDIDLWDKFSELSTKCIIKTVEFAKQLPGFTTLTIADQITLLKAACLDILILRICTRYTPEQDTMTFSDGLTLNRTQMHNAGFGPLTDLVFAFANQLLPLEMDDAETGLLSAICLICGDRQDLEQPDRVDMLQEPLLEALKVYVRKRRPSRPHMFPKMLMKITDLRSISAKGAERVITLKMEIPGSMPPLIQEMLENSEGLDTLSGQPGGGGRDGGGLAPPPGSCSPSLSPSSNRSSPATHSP
T1 sequence (P28705 1-463 partner): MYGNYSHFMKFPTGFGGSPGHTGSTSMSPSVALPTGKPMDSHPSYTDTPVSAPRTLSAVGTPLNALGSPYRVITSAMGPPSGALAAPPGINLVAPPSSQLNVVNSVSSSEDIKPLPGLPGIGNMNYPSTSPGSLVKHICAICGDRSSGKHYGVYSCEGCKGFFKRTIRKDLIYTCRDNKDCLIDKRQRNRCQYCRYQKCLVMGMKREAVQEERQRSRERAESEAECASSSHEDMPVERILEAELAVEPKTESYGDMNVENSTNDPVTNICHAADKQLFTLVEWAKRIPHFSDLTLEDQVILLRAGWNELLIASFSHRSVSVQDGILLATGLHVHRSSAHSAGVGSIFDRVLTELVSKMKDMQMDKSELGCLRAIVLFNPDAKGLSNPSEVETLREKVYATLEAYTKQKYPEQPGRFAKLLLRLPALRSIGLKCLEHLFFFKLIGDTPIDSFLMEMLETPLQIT
Assay: LXD peptide competition of ATRA-induced co-activator recruitment (Example 7, FIG. 8A)
Format: biochemical
Conditions: SRC-1 peptides at 40 μl (so in the source), DR-5 RARE
Description: Nolte, R. T. et al., Nature 395:137-143 (1998). We addressed the importance of each of the three LXDs in mediating co-activator-receptor interaction using synthetic peptides comprising the LXD1, LXD2 or LXD3 amino acid sequences as competitors with SRC-1 in the DNA modified immunoprecipitation methods of the present invention. These peptides have the following amino acid sequences (with the characteristic LXXLL motif shown in bold):
Transfection, DR-5 oligonucleotide treatment, ligand treatment, immunoprecipitation and detection of associated co-factors were performed essentially as shown in the previous Examples. CV-1 cells were transfected with plasmids expressing either RARα/RXRγ-V5 or with RARγ/RXRα-V5. Synthetic LXD peptides were added to the cell lysate before the addition of retinoids at a concentration of 20 (ACTR) and 40 (SRC-1) […].

SLTERHKILHRLLQEGSPSDIT (Nuclear co-activator LXD-containing peptide) [SRC-1 LXD2]
effect of peptide on ATRA-induced recruitment of SRC-1: completely abolished
